Consider one substance from paper doi:10.1101/2024.04.26.590571.

The target of the experiment is NB-protein (BchN-BchB α2β2 heterotetramer), electron acceptor component of Rhodobacter sphaeroides DPOR (Rhodobacter sphaeroides). In words: cryo-EM structure.

L-protein (BchL homodimer), electron donor component of Rhodobacter sphaeroides DPOR, sequence (Q9RFD6 whole entry): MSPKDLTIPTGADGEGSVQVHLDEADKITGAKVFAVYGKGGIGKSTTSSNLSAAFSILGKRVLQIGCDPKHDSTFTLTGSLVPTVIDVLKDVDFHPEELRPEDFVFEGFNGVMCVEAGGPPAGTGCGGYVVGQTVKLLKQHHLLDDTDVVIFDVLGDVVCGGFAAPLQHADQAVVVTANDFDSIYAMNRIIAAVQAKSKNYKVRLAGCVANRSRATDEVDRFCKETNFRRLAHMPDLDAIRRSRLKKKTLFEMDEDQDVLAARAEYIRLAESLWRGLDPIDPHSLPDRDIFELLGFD

Take “L-protein (BchL homodimer), electron donor component of Rhodobacter sphaeroides DPOR (from UniProt Q9RFD6 1-297) (enzyme)”: the stoichiometry N (L-protein dimer per NB-protein tetramer) stood at 1 and the stoichiometry N (L-protein dimers per NB-protein tetramer) amounted to 2.
